{"source": "the DeepSol protein solubility set"}
{"assay": "soluble on expression in E. coli; label from the status in PepcDB or PDB records"}
{"sequence": "GPGSMPTRSHGDEEYYRQSRYKPVSIEDTPMFWKERADKCYGTQQWKAAANAYSESIKRDGAFLTCVMNRSACYLQMADYKRAIEDCSLALTMLANTPASEVTQERYRGLMTKLHARRGAAYCWADDLKSGAADLRMAAAYRDPTSDDDVAADLAMIEAQMKERGITEVDACVDPLSTRMQEAAAQYYQGSYEAAEATYSAILKEQPFHMKAQGNLAATLLRAGKFTQALQVCDGIVQFCSEAAAALEQPGGLAGDQLDSDDEEDEDEPDWAASSTESAPEEVEGASNKDTLVRQRRAAAKTLGEQSGHVYMLLKAYVRSAAALCGMKEYHKAHGYLERAMRITPYDNDLREDCNRLAEKIRMDTLITASAGSARTQKAAV", "soluble on expression in E. coli": "soluble"}
{"sequence": "GPGSMPVDYSKKLDALRELYERVQQKDTDIPEDVYAAAGVKNKARLKDIEKEISTTKKKVSQEVKKVTNEEIEKEYEALAKEHNMTVEEFKETVMGKGRQPALGSEFSERHAAQRKERAEQRDLKETRRQVERGDFDMTVDYV", "soluble on expression in E. coli": "soluble"}
{"sequence": "GPGSMQMEEKQAFFVESVDGRKFKMVIRGDLGKLSVAKIRRYLKSYGVPENQLLLAGNRVLEDAMLGEQFGLENEGVLHLREPTTVQHLAPAAVPSTAQSRTQLQQKPELSYEPQSAWRETRYEPAAHDARQMQREIERLQRQVEAAEARNADLEHQLEQVAESSAPYPPRGGAGGARRMSNSSDLDGLQVAKQSLKILAQKLGVSLQFDKNLTCVVGTDADFSILLTYDPATERLYIYSSLLTELPDHPPLRMKLYEVLLEGSLLGREVCGGGVGLSTQNNVVVLTTSLPVRHCSPEALCEVMPLFVETLVRWRSLIDELVR", "soluble on expression in E. coli": "soluble"}
{"sequence": "GPGSMRRTFKKLGLSALRACRGAGAAGTAASAHTSGFARVPSMSAPTALTVPRRSASDAALADATRRELEEEMGRSDKPEQPTPPAGWQVVRKPGTCTFDLTKSFEGEDLVVRYSTNQDSDKANSHNIFVYITQKNGQTMQADLSIEEGELVLNNIRFYDEAALAKDTGAEAEAKRNELYTGPLVHELDYDLLNCVMTYLEKRGVDEKLGEFVVLYSFWAEQQDYEAWLTTMNKFAS", "soluble on expression in E. coli": "not soluble"}
{"sequence": "GPGSMRTSADIACLLAQYIKGQPEERLVTAAAYPDIFTPDVVEELNGAYALLLDAQRQAREACCAVDDVTREHGLPTALRITPKEQNELDVTEEMMIKRFAEEVAVYLSEGGAPNISSDAEPTSVLNSHCVDLRWHQHSTLVLHVLSYLPLEFTLSVAENVCKGWREWLFIPEFSGMFWHECTMREYPECVRMLLLSGGGDARQCDWRTFAMLCCSVDEEDISGEGTRSPDLVHS", "soluble on expression in E. coli": "not soluble"}
{"sequence": "GPGSMRWPAEPGCGSQGPATPERANKLRFLLVGKTDSGNHPSGWLVARTVRYSTADAEIGPCKGLISHDCKLLLLLCGYFERNPGPLRFVQQNVNGVSAVKLSSLLALDADVYLLPEVKKLREASRICKVPPYTVYCSPPNARGGRVAILVHQRSSIQTRSVTWKALPNDTGIKAVTVKL", "soluble on expression in E. coli": "not soluble"}
{"sequence": "GPGSMSAPTPRTGIIAGFNKGHVTTRRPRQPSPNDRFAVPHKHLRAVKAIIADLVGLSPLEKRVQEFLRVGKEKRALKYCKKRLGDFTAAKKKRSKMEEALRHATKKHH", "soluble on expression in E. coli": "soluble"}
{"sequence": "GPGSMSATEAVVEPKAPDVCTEANERPPTESGVAAPVKRLFDLLQEDSKERVVRLLTAFRELTLLEQESLAQEMGVTLPKEEKWRAPCPLIARQPSGPSLEVRRRDPSYVALCPSVSSALRELGSKEAARRLPDADLRKLVEGALGEDGVYLTVPESDGEGCAAASERVGVVDDGKPPLLVRSRCYQALRLARDEEIETDAQYTRPRVLNVTGIPLEESDVWEWFNLLDVARNGTVGVDAFLTSVRELDRGFGTSSKVQEAFEDESRSLSVDGQLSFDKFAYLVTRFSRY", "soluble on expression in E. coli": "soluble"}
{"sequence": "GPGSMSDSTTEKIFLLYATFSEIHRELLMEHHKTHPEHKTYMDILNYLREEEGVKQSLLKKNSNWEILQQKKLTAIENVAISVKREIPGGFSNSAIVRNALPHAVVLSGFSTSSQTNENWVRLHMQLLDEQTKLVREYNDKRFLNASVKRMIVLCHEHGCDGVAGRLKREFGVSDKMHCWSMLDAYTTMSQWGLIDQLGDVKNKNKPVIGASAFINTLLACGRQEQAKQYIHKIPQIEQRMEYYLLCSDWEGAGADCRRHGEPDLLTQLKDRVKGDASAVQLIDKGWNSVQESGAVKLAKLFA", "soluble on expression in E. coli": "not soluble"}
{"sequence": "GPGSMSLTTTARTPATVGKLSPSSGIFSIPDNISPVTAEEVPKSRDSLLTDMSLSELSRQSVLQSEPVVLRLCHVGKSYPIAGSDERVVALKDITLAESKHSNAATTKQGASTTNCLQRSNLPPPFAPVRRGEFVMIRGPSGGGKTTLLNIIGSIDSCTEGNIELNGRIIDKDTKESVLADIRLKNIGFVFQTFNLIATMTAAENVELPMTLLGTMSTKAMRLRSRQLLTLVGLRNRINHLPSELSGGEQQRVTIARSLANNPSILLLDEPTGDLDTANTIEVMDLLMRINRRTKTTCIMVTHNPDIECYADRILYVSDGRFAKEVFNALPMCLDLENYTEYLAAKERAITGFAGVGDVEDDSEPRATAAMAECIGTKGCEIEKPNSSPVLMEPLTEGQSACSIVSPAASRSAVVQPLCPPAAATAPSVNGVTQTVLDTTHHGSASVPPASASSALLQREEREVPNGL", "soluble on expression in E. coli": "soluble"}
{"sequence": "GPGSMSTGAELLSKALQLQHTRCETYRLWDAKFHCALGGALSASDFETAVNNSIIAAFRCVSLSFRELQCLCRDSTDDACRFLCVWIDELQELEQRHYNISVQFAQLVVQHCTALPLHSSTSQTDMCQTAANEEAENSGVENGSKEVQGTADVSENEKSTVANGERNNSSEVICASLHDRQLCELQRIIPLQAQSVLNYVTCRDDFFPSSSDDECEGDQTGGDGCTSNGADSEPGDLLVPFHHKSGVVATYSPGEVKKRCATFNAAVMPLWRSKLRLRQQLQEKMDELQEEITSASSVFP", "soluble on expression in E. coli": "soluble"}
{"sequence": "GPGSMSTTAYALVAEEKQYPLQVGKNVVGRSSVPVEGVSFINLESPLAAISRMQAFVDIGANGDAWISDCNSTNGTFLSISPGPGIRLEANRYYQLSPGCRIVFGDVVCTFETLSEAPPTPEHPAHLLTSHSRPTRKTESLGVVDALADSTATTTPARHPSKQLNAHRSNVPYLDESGSLLREPAASRETVATTKKTPRRERREPTAPSPPLKRAKVESAAPSSFLKVKTAATAKATTPARALAARPHVCLTGMDSDERVAVTKRVRELKGRVVDDITKANLLVVATPPVRTPKFIAAVARGIPVVSVDYICNRRAELDDARHHIVGLKTDQHTYTAAELKKVIYRKDASPLLQGVSFNIAALSSKTKSVAAEIISSSGGEVVSTKKGGGTALTDAQLDKLYDSILRGKVPDVL", "soluble on expression in E. coli": "not soluble"}
{"sequence": "GPGSMSTTSSPDEASCDVEKEGKGISPVTRTGKRFAECALMDLPDKYSSAFPYLRGARLFFFDVVSKLNRIGARNKRVVFVTDYTIGVASKRGHVSRCAKVEDISELICDAQTRALGVRMRSRPFAIVPKDFSRWNCFHEMPVDLLLHATSAAQYEALINVLSFVHHTSTHEALLCRSLKQYETWKASLVLAPDGSRVKKAVQYYAIPVTPSERSTDAATLSATRSQETSASLSAVRAPRQVALLSAGDSASRFTSGPDVSATAPKLRHWSSLGASSSFTPSGVGGHRTALGLSPFSLSPSPAPPLVEFSRDIEAVPTSATRRGVNPLLKADRKAPNAS", "soluble on expression in E. coli": "not soluble"}
{"sequence": "GPGSMSTWEQAVEEADKAFAKRDCKAVCEIIEKAESDGTCHVQLMWRRARALHTLGDESLDKSEKERYARDAAVAAERAVEEDPTSAEANLWKAICIGILCDYLTTKERMSNVYVIRDHLLRSLELKSDNPDALHGMGMWSLSLLQISWFERSAASLLFGSLPTVSHEECLKYFLASHELRPSIRNCLALGNLFRYQGNWTEAKTWYQKALDIPAETHAHKQKQDEAVQLLNSC", "soluble on expression in E. coli": "soluble"}
{"sequence": "GPGSMTERLSLSRDRINVLLLEGISQTAVEYFKSSGYTNVTHLPKALDKADLIKAISSAHIIGIRSRTQLTEEIFAAANRLIAVGCFSVGTNQVELKAARKRGIPVFNAPFSNTRSVAELVIGEIIMLMRRIFPRSVSAHAGGWEKTAIGSREVRGKTLGIVGYGNIGSQVGNLAESLGMTVRYYDTSDKLQYGNVKPAASLDELLKTSDVVSLHVPSSKSTSKLITEAKLRKMKKGAFLINNARGSDVDLEALAKVLQEGHLAGAAIDVFPVEPASNGERFSTPLQGLENVILTPHIGGSTEEAQERIGTEVTRKLVEYSDVGSTVGAVNFPQVQLPPRPTGTRFMHVHENRPGILNSLMNVFSHHHINIASQFLQTDGEVGYLVMEADGVGEASDAVLQEIREIPGTIRARLLY", "soluble on expression in E. coli": "soluble"}
